Assay results: patent publication US20230065562A1, “DUAL CONTROLS FOR THERAPEUTIC CELL ACTIVATION OR ELIMINATION” (Bellicum Pharmaceuticals, Inc., priority 2015, published 2023)
Changes are numbered by the printed parent chain. In names and notes the source's numbering stands. Entries after “also recorded” stand apart in the source; their conditions may differ.

B1: F406T: modified iCasp9, F406T (protein)
chain: VDGFGDVGALESLRGNADLAYILSMEPCGHCLIINNVNFCRESGLRTRTGSNIDCEKLRRRFSSLHFMVEVKGDLTAKKMVLALLELARQDHGALDCCVVVILSHGCQASHLQFPGAVYGTDGCPVSVEKIVNIFNGTSCPSLGGKPKLFFIQACGGEQKDHGFEVASTSPEDESPGSNPEPDATPFQEGLRTFDQLDAISSLPTPSDIFVSYSTFPGFVSWRDPKSGSWYVETLDDIFEQWAHSEDLQSLLLRVANAVSVKGIYKQMPGCFNTLRKKLFFKTSASRA
B2: D327K: modified iCasp9, D327K (protein)
chain: B1 chain with D195K, T274F
B3: T317C: modified iCasp9, T317C (protein)
chain: B1 chain with T185C, T274F
B4: F406L: modified iCasp9, F406L (protein)
chain: B1 chain with T274L
B5: Q328K: modified iCasp9, Q328K (protein)
chain: B1 chain with Q196K, T274F
B6: L329G: modified iCasp9, L329G (protein)
chain: B1 chain with L197G, T274F
B7: Q328R: modified iCasp9, Q328R (protein)
chain: B1 chain with Q196R, T274F
B8: A331K: modified iCasp9, A331K (protein)
chain: B1 chain with A199K, T274F
B9: D327R: modified iCasp9, D327R (protein)
chain: B1 chain with D195R, T274F
B10: D327G: modified iCasp9, D327G (protein)
chain: B1 chain with D195G, T274F
B11: F326K: modified iCasp9, F326K (protein)
chain: B1 chain with F194K, T274F
B12: L329K: modified iCasp9, L329K (protein)
chain: B1 chain with L197K, T274F
B13: G402I: modified iCasp9, G402I (protein, UniProt P55211 1-416, looked up, variant G402I)
chain: MDEADRRLLRRCRLRLVEELQVDQLWDALLSRELFRPHMIEDIQRAGSGSRRDQARQLIIDLETRGSQALPLFISCLEDTGQDMLASFLRTNRQAAKLSKPTLENLTPVVLRPEIRKPEVLRPETPRPVDIGSGGFGDVGALESLRGNADLAYILSMEPCGHCLIINNVNFCRESGLRTRTGSNIDCEKLRRRFSSLHFMVEVKGDLTAKKMVLALLELAQQDHGALDCCVVVILSHGCQASHLQFPGAVYGTDGCPVSVEKIVNIFNGTSCPSLGGKPKLFFIQACGGEQKDHGFEVASTSPEDESPGSNPEPDATPFQEGLRTFDQLDAISSLPTPSDIFVSYSTFPGFVSWRDPKSGSWYVETLDDIFEQWAHSEDLQSLLLRVANAVSVKGIYKQMPICFNFLRKKLFFKTS
modifications: FKBP12-F36V fusion (iCasp9), CARD deleted
B14: C403P: modified iCasp9, C403P (protein, UniProt P55211 1-416, looked up, variant C403P)
chain: B13 chain with I402G, C403P
modifications: FKBP12-F36V fusion (iCasp9), CARD deleted
B15: D315A: modified iCasp9, D315A (auto-proteolysis site) (protein, UniProt P55211 1-416, looked up, variant D315A)
chain: B13 chain with D315A, I402G
modifications: FKBP12-F36V fusion (iCasp9), CARD deleted
B16: ^316ATPF^319AVPI: modified iCasp9, ATPF replaced by SMAC/Diablo AVPI (protein, UniProt P55211 1-416, looked up, variant T317V F319I)
chain: B13 chain with T317V, F319I, I402G
modifications: FKBP12-F36V fusion (iCasp9), CARD deleted
B17: F319A: modified iCasp9, F319A (protein, UniProt P55211 1-416, looked up, variant F319A)
chain: B13 chain with F319A, I402G
modifications: FKBP12-F36V fusion (iCasp9), CARD deleted
B18: G402Y: modified iCasp9, G402Y (protein, UniProt P55211 1-416, looked up, variant G402Y)
chain: B13 chain with I402Y
modifications: FKBP12-F36V fusion (iCasp9), CARD deleted

The molecules below were run on HEK293T/16 cells (assay: Secreted alkaline phosphatase (SEAP)-based surrogate killing assay of iCasp9 mutants). Settings: SEAP assay without AP1903.
Assay type: cell-based, human
Protocol: Early passage HEK293T/16 cells (ATCC, Manassas, Va.) were maintained in IMDM, GlutaMAX™ (Life Technologies, Carlsbad, Calif.) supplemented with 10% FBS, 100 U/mL penicillin, and 100 […] until transfection in a humidified, 37° C., 5% CO2/95% air atmosphere. Cells in logarithmic-phase growth were transiently transfected with 800 ng to 2 μg of expression plasmid encoding iCasp9 mutants and 500 ng of an expression plasmid encoding SRα promoter driven SEAP per million cells in 15-mL conical tubes. […] GeneJammer® Transfection Reagent at a ratio of 3 μl per ug of plasmid DNA was used to transiently transfect HEK293T/16 cells in the absence of antibiotics. 100 μl or 2 mL of the transfection mixture was added to each well in 96-well or 6-well plate, respectively.
Briefly, after 65° C. heat denaturation for 45 minutes to reduce background caused by endogenous (and serum-derived) alkaline phosphatases that are sensitive to heat, 5 μl of supernatants was added to 95 μl of PBS and added to 100 μl of substrate buffer, containing 1 μl of 100 mM 4-methylumbelliferyl phosphate (4-MUP; Sigma, St. Louis, Mo.) re-suspended in 2 M diethanolamine. Hydrolysis of 4-MUP by SEAP produces a fluorescent […] with excitation/emission (355/460 nm), which can be easily measured. Assays were performed in black opaque 96-well plates to minimize fluorescence leakage between wells. […] of the mixture was seeded onto each well of a 96-well plate. […] For the assay, 4-methylumbelliferyl phosphate substrate was hydrolyzed by SEAP to 4-methylumbelliferon, a metabolite that can be excited with 364 nm and detected with an emission filter of 448 nm. Since SEAP is used as a marker for cell viability, reduced SEAP reading corresponds with increased iCaspase-9 activities.

Row | Molecule | Basal Activity (relative to wild type/unmodified Caspase-9)
1 | B1 | lowered basal activity; also recorded: Decreased
2 | B2 | did not lower basal activity; also recorded: Increased
3 | B3 | no effect
4 | B4 | lowered basal activity and dead
5 | B5 | did not lower basal activity; also recorded: Increased
6 | B6 | did not lower basal activity; also recorded: Increased
7 | B7 | did not lower basal activity; also recorded: Increased
8 | B8 | did not lower basal activity; also recorded: Increased
9 | B9 | did not lower basal activity; also recorded: Increased
10 | B10 | did not lower basal activity; also recorded: Increased
11 | B11 | did not lower basal activity; also recorded: Increased
12 | B12 | did not lower basal activity; also recorded: Increased
13 | B13 | dead
14 | B14 | catalytically inactive and dead
15 | B15 | Decreased
16 | B16 | no effect
17 | B17 | no effect
18 | B18 | catalytically inactive and dead

Same assay, conditions: SEAP assay without AP1903; listed as D315

Row | Molecule | Basal Activity (relative to wild type/unmodified Caspase-9)
19 | B15 | reduced basal activity

Same assay, conditions: SEAP assay without AP1903; listed as G4021

Row | Molecule | Basal Activity (relative to wild type/unmodified Caspase-9)
20 | B13 | catalytically inactive
